Patent US20210393741A1

Target: CD91 on macrophages (mouse (C57BL/6 mice)) (UniProt Q91ZX7)
Test: cell-based or functional assay

UniProt Q91ZX7, sequence (Q91ZX7 20-4545): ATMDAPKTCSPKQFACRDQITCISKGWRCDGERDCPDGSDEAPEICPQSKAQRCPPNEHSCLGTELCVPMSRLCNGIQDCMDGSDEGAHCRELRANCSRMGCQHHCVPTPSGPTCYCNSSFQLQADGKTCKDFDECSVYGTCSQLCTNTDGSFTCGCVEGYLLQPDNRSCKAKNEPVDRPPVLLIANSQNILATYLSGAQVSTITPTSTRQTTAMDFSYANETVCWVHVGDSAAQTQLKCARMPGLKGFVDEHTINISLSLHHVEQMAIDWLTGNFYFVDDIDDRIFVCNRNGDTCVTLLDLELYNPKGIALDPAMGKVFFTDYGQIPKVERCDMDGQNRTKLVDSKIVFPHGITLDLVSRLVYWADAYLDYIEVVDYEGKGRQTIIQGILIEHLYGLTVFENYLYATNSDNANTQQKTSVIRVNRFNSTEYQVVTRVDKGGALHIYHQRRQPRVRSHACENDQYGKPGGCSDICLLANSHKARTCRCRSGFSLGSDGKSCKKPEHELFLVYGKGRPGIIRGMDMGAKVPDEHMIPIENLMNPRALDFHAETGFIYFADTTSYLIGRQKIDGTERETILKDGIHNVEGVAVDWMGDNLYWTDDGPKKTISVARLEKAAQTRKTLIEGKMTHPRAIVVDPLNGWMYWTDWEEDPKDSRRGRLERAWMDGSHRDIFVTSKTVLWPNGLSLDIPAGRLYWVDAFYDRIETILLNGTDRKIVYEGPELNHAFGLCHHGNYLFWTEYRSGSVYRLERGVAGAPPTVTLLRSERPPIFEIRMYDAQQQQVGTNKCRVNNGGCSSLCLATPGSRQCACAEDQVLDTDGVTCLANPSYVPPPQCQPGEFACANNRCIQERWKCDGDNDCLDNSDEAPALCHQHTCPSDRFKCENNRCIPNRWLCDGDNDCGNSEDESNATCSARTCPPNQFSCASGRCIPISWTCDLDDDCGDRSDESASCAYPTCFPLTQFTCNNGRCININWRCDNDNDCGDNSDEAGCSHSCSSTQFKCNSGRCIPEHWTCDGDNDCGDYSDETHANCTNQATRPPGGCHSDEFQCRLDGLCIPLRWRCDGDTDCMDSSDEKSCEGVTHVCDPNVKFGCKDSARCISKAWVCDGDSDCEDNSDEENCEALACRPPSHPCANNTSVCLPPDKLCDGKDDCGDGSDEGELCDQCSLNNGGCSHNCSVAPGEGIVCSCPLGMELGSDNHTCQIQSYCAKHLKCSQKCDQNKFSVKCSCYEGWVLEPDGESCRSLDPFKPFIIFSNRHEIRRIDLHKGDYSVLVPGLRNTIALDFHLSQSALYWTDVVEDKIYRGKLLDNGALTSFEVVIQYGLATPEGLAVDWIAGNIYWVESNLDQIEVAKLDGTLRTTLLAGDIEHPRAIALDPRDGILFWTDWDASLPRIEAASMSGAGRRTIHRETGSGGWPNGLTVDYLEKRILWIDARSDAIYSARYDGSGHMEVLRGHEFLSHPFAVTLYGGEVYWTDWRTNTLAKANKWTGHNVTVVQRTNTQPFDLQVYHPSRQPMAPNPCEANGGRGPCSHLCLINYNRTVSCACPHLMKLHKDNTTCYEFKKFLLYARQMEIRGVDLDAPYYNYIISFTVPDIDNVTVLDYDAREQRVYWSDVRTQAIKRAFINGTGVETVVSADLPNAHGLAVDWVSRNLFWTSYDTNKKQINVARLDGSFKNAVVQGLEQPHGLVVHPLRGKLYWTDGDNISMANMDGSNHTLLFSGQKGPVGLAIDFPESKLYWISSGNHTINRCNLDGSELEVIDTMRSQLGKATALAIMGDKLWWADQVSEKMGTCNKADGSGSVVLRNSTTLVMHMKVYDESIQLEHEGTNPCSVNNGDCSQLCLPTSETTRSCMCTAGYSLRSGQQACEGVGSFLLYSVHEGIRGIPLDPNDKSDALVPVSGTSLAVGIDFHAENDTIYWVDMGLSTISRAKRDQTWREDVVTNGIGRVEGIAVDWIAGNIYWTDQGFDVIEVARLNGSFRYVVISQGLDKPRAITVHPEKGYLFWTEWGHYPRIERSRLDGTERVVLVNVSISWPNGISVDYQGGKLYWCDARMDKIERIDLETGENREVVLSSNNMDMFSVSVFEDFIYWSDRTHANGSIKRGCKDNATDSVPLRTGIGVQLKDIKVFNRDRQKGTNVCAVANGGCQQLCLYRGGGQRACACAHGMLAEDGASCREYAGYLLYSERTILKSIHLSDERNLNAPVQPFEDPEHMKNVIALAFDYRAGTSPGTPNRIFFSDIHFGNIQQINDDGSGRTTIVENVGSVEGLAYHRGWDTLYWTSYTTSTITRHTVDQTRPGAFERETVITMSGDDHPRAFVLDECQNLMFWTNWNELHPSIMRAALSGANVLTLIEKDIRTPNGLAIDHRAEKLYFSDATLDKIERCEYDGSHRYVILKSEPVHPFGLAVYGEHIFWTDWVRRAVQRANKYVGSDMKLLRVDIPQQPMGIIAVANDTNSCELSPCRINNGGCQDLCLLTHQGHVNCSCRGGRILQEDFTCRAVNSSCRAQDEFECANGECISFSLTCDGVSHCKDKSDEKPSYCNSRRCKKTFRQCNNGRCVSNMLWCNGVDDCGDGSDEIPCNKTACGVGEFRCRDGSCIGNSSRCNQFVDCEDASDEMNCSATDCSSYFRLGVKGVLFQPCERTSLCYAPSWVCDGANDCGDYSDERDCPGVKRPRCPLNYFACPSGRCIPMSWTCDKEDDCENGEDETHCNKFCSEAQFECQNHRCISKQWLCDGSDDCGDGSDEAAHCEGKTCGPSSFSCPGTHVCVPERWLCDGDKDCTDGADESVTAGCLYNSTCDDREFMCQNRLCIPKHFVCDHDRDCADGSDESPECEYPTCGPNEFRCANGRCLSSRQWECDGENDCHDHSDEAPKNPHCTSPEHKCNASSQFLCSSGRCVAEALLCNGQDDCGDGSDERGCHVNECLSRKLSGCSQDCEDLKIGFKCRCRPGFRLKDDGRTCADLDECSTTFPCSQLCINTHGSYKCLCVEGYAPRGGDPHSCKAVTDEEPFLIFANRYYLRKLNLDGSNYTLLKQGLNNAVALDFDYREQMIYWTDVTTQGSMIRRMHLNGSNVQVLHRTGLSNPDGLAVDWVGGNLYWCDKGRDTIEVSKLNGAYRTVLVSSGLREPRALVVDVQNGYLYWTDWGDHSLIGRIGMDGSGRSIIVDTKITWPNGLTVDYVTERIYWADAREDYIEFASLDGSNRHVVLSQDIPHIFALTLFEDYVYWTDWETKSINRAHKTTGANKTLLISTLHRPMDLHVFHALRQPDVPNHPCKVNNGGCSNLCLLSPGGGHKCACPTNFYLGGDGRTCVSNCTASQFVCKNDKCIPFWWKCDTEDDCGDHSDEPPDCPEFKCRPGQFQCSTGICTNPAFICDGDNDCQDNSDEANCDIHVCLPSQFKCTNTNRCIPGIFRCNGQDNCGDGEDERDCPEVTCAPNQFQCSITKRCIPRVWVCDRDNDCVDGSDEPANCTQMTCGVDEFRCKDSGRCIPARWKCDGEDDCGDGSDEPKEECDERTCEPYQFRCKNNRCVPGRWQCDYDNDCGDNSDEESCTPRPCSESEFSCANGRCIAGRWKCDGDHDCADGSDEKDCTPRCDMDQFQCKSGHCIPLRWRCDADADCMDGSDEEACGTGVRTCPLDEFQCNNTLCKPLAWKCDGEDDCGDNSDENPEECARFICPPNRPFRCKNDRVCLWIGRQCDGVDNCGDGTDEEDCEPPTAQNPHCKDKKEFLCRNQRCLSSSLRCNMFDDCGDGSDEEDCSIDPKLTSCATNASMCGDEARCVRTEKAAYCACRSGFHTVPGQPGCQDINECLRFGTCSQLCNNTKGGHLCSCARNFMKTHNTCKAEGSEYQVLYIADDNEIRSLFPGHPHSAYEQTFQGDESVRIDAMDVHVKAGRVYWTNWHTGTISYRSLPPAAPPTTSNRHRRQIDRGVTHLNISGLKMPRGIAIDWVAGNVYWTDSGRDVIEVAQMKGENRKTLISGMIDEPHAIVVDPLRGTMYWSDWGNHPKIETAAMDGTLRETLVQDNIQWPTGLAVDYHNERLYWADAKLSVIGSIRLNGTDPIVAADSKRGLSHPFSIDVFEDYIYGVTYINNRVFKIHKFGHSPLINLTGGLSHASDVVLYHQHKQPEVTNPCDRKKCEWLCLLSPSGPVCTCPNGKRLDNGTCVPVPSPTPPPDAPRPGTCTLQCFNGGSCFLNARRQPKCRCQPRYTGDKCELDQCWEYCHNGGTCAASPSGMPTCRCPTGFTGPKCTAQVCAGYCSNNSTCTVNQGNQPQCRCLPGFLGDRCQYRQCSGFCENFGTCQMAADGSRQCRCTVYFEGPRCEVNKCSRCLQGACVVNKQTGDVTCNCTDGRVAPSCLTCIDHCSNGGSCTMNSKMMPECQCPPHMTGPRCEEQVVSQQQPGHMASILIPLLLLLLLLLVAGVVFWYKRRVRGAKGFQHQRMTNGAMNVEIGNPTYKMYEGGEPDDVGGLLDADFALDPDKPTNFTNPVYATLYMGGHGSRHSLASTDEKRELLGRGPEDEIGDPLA

IFN alpha MFI (Fold Change), RAW264.7 macrophage (M1) cells pulsed with calreticulin 10 ug/ml for 20 min, FACS: 7.5 fold change | IFN beta MFI (Fold Change), RAW264.7 macrophage (M1) cells pulsed with calreticulin 10 ug/ml for 20 min, FACS: 7 fold change | IL-12 MFI (Fold Change), RAW264.7 macrophage (M1) cells pulsed with calreticulin 10 ug/ml for 20 min, FACS: 3.5 fold change | IL-15 MFI (Fold Change), RAW264.7 macrophage (M1) cells pulsed with calreticulin 10 ug/ml for 20 min, FACS: 3.5 fold change
Substance: calreticulin (CRT), recombinant (ligand)
